Test: soluble fraction after stress (log2 fold change); higher = more stays soluble; pooled small domains, quantitative proteomics
Settings: stress: 50 degC
In short: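 Each library was heated to 50°C as a stress step. The libraries, made up of small protein domains, were pooled and analysed at high throughput by quantitative proteomics. The reported value is the base-two logarithm of the fold change in each protein's soluble amount after stress, taken as a measure of aggregation propensity. The higher the value, the more protein stays in solution.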

Q: With “HMEAKQMDAWIVSEAKRQGGKIEPAAAYELSRHTATDTSIASQEIAKLLMYVDFKRPVTREDVVELVSA” as the sequence, how does the “soluble fraction (log2)” value read?
A: 0.176

Q: For “HMINYSQKQLIAIQDELSKRFQALENESTKNNVTGFGVGLHYIDIDLIVNTPEKQKEFREKIMDSPAFRFN”, which “soluble fraction (log2)” value is on record?
A: -0.839

Q: With “HMSLNHDIWVQELKEKRSGYGISQSRLAIAAGMTRQYLSDIETGKVLPSAERKAAITEALERFNPD” as the sequence, how does the “soluble fraction (log2)” value read?
A: -0.368

Q: Which “soluble fraction (log2)” value does the source give for “HMLERPLKLKSHYVSTIYEKVAVQYSEGEEKKSVMGTLIEVNQDTIVLDDRGTIIEIPFKSITRAKTVF” here?
A: -0.245

Q: With “HMNPLDGTSVHPESYEAAEKLLKKQGFSLEDISGGKLTGLSLTIKDYARLAKELEIGEITLRDIVKELEK” as the sequence, how does the “soluble fraction (log2)” value read?
A: 0.0193

Q: For “HMLEAMDSDEAAKVIEQIVNERADFVRSKGMGAIGPLMGPVMGALRGKVDGKQANELLTAAIKKLL”, which “soluble fraction (log2)” value is on record?
A: 0.273

Q: For “HMERLKYSQVVDLFKGEQVKSFVLDESNQLKMELQDGSTVSYKLRSFEQFYLDLSDTVKEQKESGIITDYD”, which “soluble fraction (log2)” value is on record?
A: -0.746

Q: For “HMHDHKTRLQELAAQRFGSAPSYLLTADGPAHDRRFHASVEVGGRSFGPGTGKSKKRAEQVAAHIAWDALS”, which “soluble fraction (log2)” value is on record?
A: 0.394

Q: With “HMEIEETKKNSRTKIPENFDYKLINGLSNEIRAKLELIRPIDLLQASRIDGMTPAALTLVHLWIKKYSG” as the sequence, how does the “soluble fraction (log2)” value read?
A: -0.338

Q: With “HMAQKQLYIAGTDYTKNSTSQLVLAYFPAKPSSIKIFFDGIYQNKDKWSLFGKTIIFGLPISSNAVEVHYE” as the sequence, how does the “soluble fraction (log2)” value read?
A: -2.1

Q: For “HMVGDLPPQELRVFELIGDGLSNREIADEMILAEKTIKNYVTSLLQKLGMQRRTEAAAFAARLDER”, which “soluble fraction (log2)” value is on record?
A: -0.0396

Q: Which “soluble fraction (log2)” value does the source give for “HMSAEDYMEMIYRLSQENGFTRVNDLASALNVQPPSVTRMIQKLAELNLIKYEKYGVIMLQPYGIEVGRSL” here?
A: -1.91

Q: Which “soluble fraction (log2)” value does the source give for “HMIPENKRVLISLTYIYGIGKKISQDILEKANIDSSIKTSQLTDDDVARIRQLIENDYLVEGELRV” here?
A: 0.0489

Q: With “HMNVGKYILTLAAKEGYSQSDVARRTGISRQMLSYIIAGERKLTLPQALKIESLLSLKTGTLILMQDED” as the sequence, how does the “soluble fraction (log2)” value read?
A: -3.41

Q: Which “soluble fraction (log2)” value does the source give for “HMTNQEFNAAFKPFLDYFPTTEMTKEKINIYYLALSDLSKEQLGSAFISMVKNRVYKNFPQVAEIRQYATN” here?
A: -0.0953

Q: Which “soluble fraction (log2)” value does the source give for “HMPLQKNRPKIKPQKVVFLFSVEWMWSPAHNRIDSYFINIKPSRYYLWNSFFDRHSFSDYWDFIGYTEN” here?
A: -0.0868

Q: With “HMGERVDGVVKFFNGQKGFGFIQREDGGPDAFVHISAVERAGMAGLDEGQRVSFELELDRRGKQAAINLTP” as the sequence, how does the “soluble fraction (log2)” value read?
A: 0.00122

Q: With “HMSKIVPVAYSQFLKDVKNGNVSQVEIRGNNIKGINNNGSSFSTYAPNDLSLIDKLEKSNVEIIVMPLE” as the sequence, how does the “soluble fraction (log2)” value read?
A: -0.125

Q: With “HMNKLSISALAETVSTKRKEKSMTQQDLSDATGINRALISRLEQKDFIPSIPQLEKLEEILGFELEEVF” as the sequence, how does the “soluble fraction (log2)” value read?
A: -0.0428

Q: For “HMIKDSKAAYKILGVDENATNEEIKKAYRQLVINHHPDKVSHLGEDIQRAANEKLKQINAAYDEIKKQRGF”, which “soluble fraction (log2)” value is on record?
A: 0.237

Q: For “HMRFGNHHVYRTLMVLSDQKRKGRKQIADAVGIGEGSMRTIIEYLRGLDMIDIRQTGVKITRHGNAFL”, which “soluble fraction (log2)” value is on record?
A: 0.0164

Q: With “HMEIEYFDDEELDAYKGRKSDSYTDEEAAQFAEVLYTMRPSEVKDWTASLTLRGISMPDQIKDEAIMLME” as the sequence, how does the “soluble fraction (log2)” value read?
A: -0.0466

Q: With “HMNIEEAESILKEIKTVLTDKEYEVYTLRAKGFTYQEIASLLNTTTKSVDGALSRIKTKINNIK” as the sequence, how does the “soluble fraction (log2)” value read?
A: 0.0839

Q: With “HMSYTYPVARLNHIKGKWYVLVSVPAHLRHLFPNQRDLRRSTGTDDESLAKRKQHALAQEIYDLFD” as the sequence, how does the “soluble fraction (log2)” value read?
A: -0.468

Q: Which “soluble fraction (log2)” value does the source give for “HMVDALYGQGARVMRDFSEGSGIVKLDNGETWTGRLSPAASGASLYVGDRVIVTRIDGAIAEVTPP” here?
A: -0.0539

Q: With “HMTAVNEHELMNQFKLSLGYANGDDPQTKLSTDEKNDFMRFKEWATAMTKDSKMGKDPDYLKKLAVQWTLK” as the sequence, how does the “soluble fraction (log2)” value read?
A: 0.214

Q: For “HMAPEPFILSVDADGKYYIDDLEKTKQEILIYATALYQEKPTTDFLVRGDKSAAYNDVLQAMVVLKE”, which “soluble fraction (log2)” value is on record?
A: -0.0406

Q: Which “soluble fraction (log2)” value does the source give for “HMLAAAVVVYATDKVNVRAEASETADVIGQLEAGSQTTRLEDKDGWSRIDYSNGTQGYMKSEFLSTEAPT” here?
A: -0.102

Q: For “HMKLIRIPFILTEGPDSQKITIDVDGDEEFRLGDVFEEDDKLWTVNQILVSGERKAKRSMAGEVMRISALR”, which “soluble fraction (log2)” value is on record?
A: -1.26

Q: Which “soluble fraction (log2)” value does the source give for “HMTVLSKEEFVAIEQRLLQLLGTAPVDNKILLQQLSGIKKEKAWKVLSFLQAENKIGMDATGRVYL” here?
A: -0.439

Q: Which “soluble fraction (log2)” value does the source give for “HMGNVGEAIEALVKGFQEGNQFQTLLGVTGSGKTFTMANVIAALNKPTLIISHNKTLAAQLYLSLIHIS” here?
A: 0.112

Q: For “HMESGSSKINQDILETFTRGKKSLSISDISRLSGHHRHTVARYLDNLVSSGKLEMRQHGQKKKYYLSDIQP”, which “soluble fraction (log2)” value is on record?
A: 0.0308

Q: With “HMKEFEINSQWKPSLEVYDILSVKGGISRNFIEDSIPEFVLYWRGRGDKSNTWDSKFVQHVKRQWNFYSGL” as the sequence, how does the “soluble fraction (log2)” value read?
A: -3.32

Q: For “HMSQLSQIVDAFGGLRPFARALNKPPSTVQYWIEKGGIPASVVSPIMKLSEEKGLGLSRDQVSAAVS”, which “soluble fraction (log2)” value is on record?
A: 0.157

Q: For “HMNTYEIIGGDNRARGPVTGEELSQWIREGRASGHTMARVSDGEHWQPLGSFPEFVGPLQGLPW”, which “soluble fraction (log2)” value is on record?
A: 0.127

Q: For “HMAVDPSVLTRRERQALAWIARGLSNKEVARGLNLAESTVKVHVQSILRKLNLTSRVQAAVYAIEHGIDK”, which “soluble fraction (log2)” value is on record?
A: -2.79

Q: With “HMPSLGGLLALLKRNRKPDAMEALDRLISKEDRPETAEALENIREKVRNMQMREAEGLLLALMEP” as the sequence, how does the “soluble fraction (log2)” value read?
A: -0.0372
